Measured values from publication PMC4005879 (Bioorganic & medicinal chemistry letters, 2014).
Read-outs that look alike come from different tables or passages of the source.

Assays:
[1] = target: capsid assembly inhibitor (CAI) peptide; assay: ITC
[2] = target: HIV capsid protein p24 CTD (Human immunodeficiency virus 1) (UniProt O93182); settings: cited from earlier work
[3] = system: HIV-1; settings: read-out: MT-2 cells IC50, multi-cycle infection assay, ref [8]; cited from earlier work
[4] = system: HIV-1; settings: read-out: TZM-b1 cells IC50; single-cycle assay, TZM-bl cells; ref [8]; cited from earlier work

Question: Which Kd [1] does the source give for “C-terminal domain (CTD) of the HIV capsid protein p24, M184A/W185A (domain or fragment)” here?
Answer: 8.3 µM

Question: What about the dH [1] of the same substance?
Answer: -9.45 kcal/mol

Question: And the stoichiometry N [1]?
Answer: 0.98

Question: For CAI, which Kd [2] is on record?
Answer: 15 µM

Question: For “ISFR8ELLDYYS5ESGS (sidechain bridge or staple) [NYAD-36]”, which IC50 [3] is on record?
Answer: 1500 ± 170 nM

Question: And the IC50 [4]?
Answer: 2000 ± 400 nM
